Here are results for one protein from paper PMC3666333 (Nature communications, 2013).

This series deals with the molecule itself. Put plainly: SAXS titration.

B1: Gp4D (residues 241-566, 36-kDa), minimal fragment of the T7 gene 4 helicase that forms hexameric rings (domain or fragment, bacteriophage T7, UniProt P03692 241-566, looked up)
chain: CHLNGHDREIMEQVWNAGPWIPDGVVSALSLRERIREHLSSEESVGLLFSGCTGINDKTLGARGGEVIMVTSGSGMGKSTFVRQQALQWGTAMGKKVGLAMLEESVEETAEDLIGLHNRVRLRQSDSLKREIIENGKFDQWFDELFGNDTFHLYDSFAEAETDRLLAKLAYMRSGLGCDVIILDHISIVVSASGESDERKMIDNLMTKLKGFAKSTGVVLVVICHLKNPDKGKAHEEGRPVSITDLRGSGALRQLSDTIIALERNQQGDMPNLVLVRILKCRFTGDTGIAGYMEYNKETGWLEPSSYSGEEESHSESTDWSNDTDF
Regarding B1, the binding result is reported as “binds”.
